Test results published in publication doi:10.1101/152272, “t-Darpp is an elongated monomer that binds to calcium and is phosphorylated by cyclin-dependent kinases 1 and 5” (bioRxiv, 2017).

Biological target: the molecule itself
Assay: cross-linking; glutaraldehyde 0.1% or 1% (v/v), 30 min at 25°C, then SDS-PAGE (10% gel); each protein alone and an equimolar mixture of t-Darpp and Darpp-32

B1: Darpp-32 (natural protein, UniProt Q9UD71-1 1-204, looked up)
chain: MDPKDRKKIQFSVPAPPSQLDPRQVEMIRRRRPTPAMLFRLSEHSSPEEEASPHQRASGEGHHLKSKRPNPCAYTPPSLKAVQRIAESHLQSISNLNENQASEEEDELGELRELGYPREEDEEEEEDDEEEEEEEDSQAEVLKVIRQSAGQKTTCGQGLEGPWERPPPLDESERDGGSEDQVEDPALSEPGEEPQRPSPSEPGT
notes: Darpp-32, the longer isoform encoded by PPP1R1B, with 36 more residues at the N-terminus than t-Darpp; The printed UniProt entry is the human protein; The construct is probably the whole isoform, because the tail is said to be added to the C-terminus of Darpp-32; also called recombinant Darpp-32; longer isoform of t-Darpp; source: E. coli BL21 DE3, purified (Ni-NTA)
With B1 the “stoichiometry N” value was 2.
